Source: patent US20080050387A1, “Non-Androgen Dependent Roles for Androgen Receptor and Non-Androgen Related Inhibitors of Androgen Receptor” (priority 2003, published 2008)
Each block holds one molecule with its values, some of them ahead of it.

How the values were obtained:
AR [1] = test: Mammalian two-hybrid assay hRad9 / AR in PC-3 cells; assay type: cell-based, human; conditions: 10 nM DHT
Procedure: (§1) PC-3, CWR22R, and LNCaP cell lines were maintained in […] supplemented with 10% fetal calf serum (FCS). Transient transfection for luciferase assays was carried out in 24-well plates (5×10^4 cells per well) using SuperFect as described previously (Lin, H. K., et al., Embo J 21:4037-48 (2002)). DNA mixtures in transfection assay were indicated in each figure. The total amount of transfected DNA was kept constant (1 μg) by adding the corresponding amounts of empty expression plasmids. After transfection, cells were cultured in […] supplemented with 5% charcoal-stripped FCS in the presence or absence of 10 nM dihydrotestosterone (DHT) for 18 h. Luciferase assays were performed as previously described (Yang, L., et al., J Biol Chem 278:16820-7 (2003)). In Western blotting assays, CWR22R or LNCaP cells were transfected by electroporation using 5×10^6 cells/0.4 ml of RPMI medium containing 2% FCS plus 9 μg of the indicated plasmids. 1 μg of EGFP expression vector was used for transfection efficiency. Electroporation was performed at 250 V and 950 μF using Gene Pulser II (Bio-Rad)
Target sequence in this assay (P10275 with tags, fused parts or gaps DEL79-80/DUP473-473): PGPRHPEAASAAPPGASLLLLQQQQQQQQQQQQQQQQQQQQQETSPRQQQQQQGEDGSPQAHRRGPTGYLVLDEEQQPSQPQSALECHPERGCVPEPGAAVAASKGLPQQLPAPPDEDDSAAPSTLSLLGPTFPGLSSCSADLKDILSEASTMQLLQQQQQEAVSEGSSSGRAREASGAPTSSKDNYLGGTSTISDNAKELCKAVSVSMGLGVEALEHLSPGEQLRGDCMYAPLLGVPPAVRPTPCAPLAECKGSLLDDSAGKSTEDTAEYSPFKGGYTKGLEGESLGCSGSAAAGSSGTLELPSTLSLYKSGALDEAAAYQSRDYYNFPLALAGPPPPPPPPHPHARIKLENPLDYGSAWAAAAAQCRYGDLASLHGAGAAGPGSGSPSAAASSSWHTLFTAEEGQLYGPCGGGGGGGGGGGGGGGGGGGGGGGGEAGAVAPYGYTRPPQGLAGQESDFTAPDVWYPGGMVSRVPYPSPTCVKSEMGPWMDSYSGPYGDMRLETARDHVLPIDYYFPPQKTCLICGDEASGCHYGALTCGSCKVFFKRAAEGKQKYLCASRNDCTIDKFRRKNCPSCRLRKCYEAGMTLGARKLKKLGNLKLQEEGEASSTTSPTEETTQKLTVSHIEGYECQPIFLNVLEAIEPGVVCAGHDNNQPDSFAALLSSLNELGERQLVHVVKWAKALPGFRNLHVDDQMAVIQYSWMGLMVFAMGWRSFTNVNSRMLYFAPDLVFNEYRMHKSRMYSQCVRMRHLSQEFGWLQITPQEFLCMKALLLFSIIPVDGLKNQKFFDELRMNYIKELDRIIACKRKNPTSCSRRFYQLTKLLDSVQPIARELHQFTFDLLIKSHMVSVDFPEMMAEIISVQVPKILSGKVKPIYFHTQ

AR [2] = test: AR transactivation MMTV-LUC assay in PC-3 cells with hRad9; assay type: cell-based, human; conditions: pCMV-AR, hRad9 termini
Procedure: as §1
Target sequence in this assay (P10275 with tags, fused parts or gaps DEL79-80/DUP473-473): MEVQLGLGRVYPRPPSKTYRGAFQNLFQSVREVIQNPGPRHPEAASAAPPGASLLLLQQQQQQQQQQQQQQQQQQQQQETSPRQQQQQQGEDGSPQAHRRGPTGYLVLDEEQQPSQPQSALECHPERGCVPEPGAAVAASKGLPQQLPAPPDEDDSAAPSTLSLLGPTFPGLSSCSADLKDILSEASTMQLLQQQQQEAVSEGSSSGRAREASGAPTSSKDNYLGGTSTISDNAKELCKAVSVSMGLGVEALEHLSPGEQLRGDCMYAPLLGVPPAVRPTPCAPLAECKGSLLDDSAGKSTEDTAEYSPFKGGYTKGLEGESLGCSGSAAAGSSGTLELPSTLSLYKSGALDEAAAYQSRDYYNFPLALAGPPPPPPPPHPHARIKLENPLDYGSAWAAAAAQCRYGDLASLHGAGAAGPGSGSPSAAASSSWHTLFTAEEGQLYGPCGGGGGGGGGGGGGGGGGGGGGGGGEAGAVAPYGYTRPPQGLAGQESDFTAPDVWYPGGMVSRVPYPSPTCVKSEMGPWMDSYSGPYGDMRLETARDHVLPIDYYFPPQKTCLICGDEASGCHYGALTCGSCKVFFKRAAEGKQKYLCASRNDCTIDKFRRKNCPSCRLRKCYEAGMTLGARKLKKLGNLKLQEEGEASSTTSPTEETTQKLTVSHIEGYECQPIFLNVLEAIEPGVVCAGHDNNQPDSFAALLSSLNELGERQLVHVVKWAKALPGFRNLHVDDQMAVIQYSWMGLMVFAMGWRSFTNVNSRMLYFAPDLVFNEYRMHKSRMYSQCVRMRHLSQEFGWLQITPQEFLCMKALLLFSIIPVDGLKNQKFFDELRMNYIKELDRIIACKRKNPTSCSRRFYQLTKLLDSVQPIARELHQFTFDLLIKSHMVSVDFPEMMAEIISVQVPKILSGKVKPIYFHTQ

AR N/C interaction = test: Reconstituted AR transcription assay (AR N/C interaction) in PC-3 cells; assay type: cell-based, human; conditions: 10 nM DHT, MMTV-LUC
Chain of AR N/C interaction (P10275 557-920): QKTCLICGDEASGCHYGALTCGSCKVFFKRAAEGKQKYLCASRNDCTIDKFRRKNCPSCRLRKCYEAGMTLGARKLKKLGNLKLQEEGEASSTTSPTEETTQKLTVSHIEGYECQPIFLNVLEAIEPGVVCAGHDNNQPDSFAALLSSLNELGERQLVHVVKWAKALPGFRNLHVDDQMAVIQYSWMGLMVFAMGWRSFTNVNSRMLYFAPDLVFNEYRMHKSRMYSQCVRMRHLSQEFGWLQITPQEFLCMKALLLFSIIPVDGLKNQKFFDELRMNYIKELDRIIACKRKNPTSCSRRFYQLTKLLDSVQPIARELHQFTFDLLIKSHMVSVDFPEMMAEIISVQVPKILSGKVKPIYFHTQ
Procedure: as §1

[3] = tested on: MAPK (GAL4-Elk1 transactivation); test: GAL4-Elk1 reporter gene assay (MAPK activation) in MCF7 cells; assay type: cell-based, human; conditions: AR-FL-activated, pG5-luc reporter
Procedure: Cells were plated in 96-well plates and plasmids at 0.5 μg per well were transfected into cells using SuperFect (Qiagen). The medium was changed 2 h after transfection and cells were cultured in the medium containing 10% CDS-FBS or 0.2% HI-FBS for 16 h, followed by treatment with 50 ng/ml EGF, 100 ng/ml IGF-1,100 ng/ml HRG-α 0.1 nM E2, or 1 nM DHT for another 16 h. Cells were then harvested and the luciferase activity was analyzed using Dual-Luciferase Reporter Assay System (Promega). 5 ng pRL-TK per well was used as internal control.

AR [4] = test: AR transactivation luciferase assay in COS-1 cells with GSK3β; assay type: cell-based, human
Procedure: (§2) COS-1 and PC-3 cells were maintained in early to mid-log phase in DMEM medium, supplemented with 10% fetal bovine serum (FBS), 50 units/ml penicillin and 50 μg/ml streptormnycin in incubators with humidified air and 5% carbon dioxide at 37° C. LNCaP cells were maintained in RPMI (GIBCO/BRL) medium. Twenty-four h prior to transfection, cells washed with Hanks' buffered saline solution, trypsinized, and seeded to be a density of 40-60% confluence for transfection. Cells in 12 well plates were refed with fresh medium 2 hours before transfection and transfected according to the “SuperFect Transfection” instructions (QIAGEN). After 2-3 h incubation, cells were treated with medium supplemented with charcoal-dextran treated FBS containing either ethanol or ligands. Cells were further incubated at 37° C. for 24 h, washed with PBS, and harvested.

[5] = target: T1, human glucocorticoid receptor (hGR) (Homo sapiens, UniProt P04150); test: hGR transactivation luciferase assay in COS-1 cells with GSK3β; assay type: cell-based
T1 construct: expressed in transfected cells; host or cells: COS-1
T1 sequence (P04150 1-777): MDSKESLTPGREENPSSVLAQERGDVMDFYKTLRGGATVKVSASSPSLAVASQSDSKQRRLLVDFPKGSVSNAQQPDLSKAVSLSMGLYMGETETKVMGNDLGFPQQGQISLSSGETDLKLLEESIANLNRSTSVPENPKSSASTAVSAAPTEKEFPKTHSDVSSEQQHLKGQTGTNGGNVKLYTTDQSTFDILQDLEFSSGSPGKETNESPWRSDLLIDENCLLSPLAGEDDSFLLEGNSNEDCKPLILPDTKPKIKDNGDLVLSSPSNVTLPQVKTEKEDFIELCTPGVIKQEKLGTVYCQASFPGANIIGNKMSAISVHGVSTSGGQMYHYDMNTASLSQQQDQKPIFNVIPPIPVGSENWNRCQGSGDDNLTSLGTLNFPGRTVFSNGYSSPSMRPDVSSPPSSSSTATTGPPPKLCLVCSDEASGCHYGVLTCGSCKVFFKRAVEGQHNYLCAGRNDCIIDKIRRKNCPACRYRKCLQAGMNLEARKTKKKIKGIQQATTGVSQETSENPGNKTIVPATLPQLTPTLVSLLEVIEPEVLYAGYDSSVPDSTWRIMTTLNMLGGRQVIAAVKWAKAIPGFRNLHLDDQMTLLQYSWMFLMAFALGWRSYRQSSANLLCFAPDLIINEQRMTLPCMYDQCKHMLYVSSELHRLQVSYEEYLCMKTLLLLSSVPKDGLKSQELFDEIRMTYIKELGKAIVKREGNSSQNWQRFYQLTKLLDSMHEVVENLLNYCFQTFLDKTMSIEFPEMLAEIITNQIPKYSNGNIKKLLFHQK
Procedure: as §2

AR [6] = test: AR transactivation luciferase assay in LNCaP cells with GSK3β; assay type: cell-based, human; conditions: MMTV-Luc, DHT
Procedure: as §2
Target sequence in this assay (P10275 whole entry T878A): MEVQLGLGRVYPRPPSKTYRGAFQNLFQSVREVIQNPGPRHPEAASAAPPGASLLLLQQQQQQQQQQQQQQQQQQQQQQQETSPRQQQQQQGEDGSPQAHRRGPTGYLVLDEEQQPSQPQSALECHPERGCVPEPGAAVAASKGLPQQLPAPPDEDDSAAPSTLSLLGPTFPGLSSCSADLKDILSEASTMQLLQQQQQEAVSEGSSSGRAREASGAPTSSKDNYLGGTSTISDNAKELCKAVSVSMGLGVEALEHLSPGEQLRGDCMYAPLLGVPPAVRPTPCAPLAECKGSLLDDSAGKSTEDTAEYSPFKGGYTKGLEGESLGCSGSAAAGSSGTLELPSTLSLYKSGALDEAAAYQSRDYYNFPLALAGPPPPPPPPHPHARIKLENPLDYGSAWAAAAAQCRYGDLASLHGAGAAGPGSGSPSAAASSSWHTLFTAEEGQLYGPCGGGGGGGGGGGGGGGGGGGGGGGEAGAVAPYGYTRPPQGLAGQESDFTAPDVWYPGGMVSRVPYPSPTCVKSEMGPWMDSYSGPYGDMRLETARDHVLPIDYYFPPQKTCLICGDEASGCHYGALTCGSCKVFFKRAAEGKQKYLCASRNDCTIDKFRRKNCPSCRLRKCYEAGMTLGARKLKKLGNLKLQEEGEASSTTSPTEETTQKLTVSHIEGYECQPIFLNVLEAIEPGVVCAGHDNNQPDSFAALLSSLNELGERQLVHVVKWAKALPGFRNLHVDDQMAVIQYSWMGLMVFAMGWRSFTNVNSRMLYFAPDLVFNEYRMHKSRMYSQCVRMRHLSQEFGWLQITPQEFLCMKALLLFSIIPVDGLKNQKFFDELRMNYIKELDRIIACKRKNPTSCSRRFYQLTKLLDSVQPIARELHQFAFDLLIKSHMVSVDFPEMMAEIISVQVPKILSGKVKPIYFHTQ

[7] = tested on: PSA expression in LNCaP cells; test: PSA promoter activity and PSA mRNA (Northern blot) in LNCaP cells with GSK3β; assay type: cell-based, human
Procedure: as §2

AR [8] = test: In vitro kinase assay of GSK3β on AR fragments; assay type: biochemical, human; conditions: 30 min at 30° C.
AR AF-1 / AF-2 = test: GAL4-ARN / GAL4-AR-LBD pG5-Luc reporter assay in COS-1 cells; assay type: cell-based, human
Procedure: as §2

AR [9] = test: AR expression by immunoblot in LNCaP cells transfected with GSK3β; assay type: cell-based, human; conditions: pCMV-GSK3β vs pCMV vector
Target sequence in this assay (P10275 whole entry T878A): as above

AR [10] = test: GST pull-down assay GSK3β / AR; assay type: binding, human; conditions: presence or absence of DHT
Procedure: 5 μl of in vitro-translated β5S]-labeled AR was incubated with the GST or GST-GSK3β bound to glutathione-Sepharose beads in a pull-down assay. After extensive washing, bead-bound protein complexes were loaded onto 8% SDS-PAGE and analyzed by Phosphorlmager. The input represents 20% amount of [^35S]-labeled proteins used in each pull-down assay. […] COS-1 cells were solubilized in RIPA buffer containing 0.5% NP-40 and protease inhibitors. Immunoprecipitation was performed using mouse HA antibody (1:1000) or normal mouse IgG (N-IgG) and then analyzed by Western blot with anti-AR NH27 (1:1000) or anti-GSK3β (1:1000) antibodies, followed by incubation with AP conjugate goat anti-rabbit or rabbit anti-mouse IgM antibodies, and visualized with AP conjugate kit (Bio-Rad).
Target sequence in this assay (P49841 whole entry partner): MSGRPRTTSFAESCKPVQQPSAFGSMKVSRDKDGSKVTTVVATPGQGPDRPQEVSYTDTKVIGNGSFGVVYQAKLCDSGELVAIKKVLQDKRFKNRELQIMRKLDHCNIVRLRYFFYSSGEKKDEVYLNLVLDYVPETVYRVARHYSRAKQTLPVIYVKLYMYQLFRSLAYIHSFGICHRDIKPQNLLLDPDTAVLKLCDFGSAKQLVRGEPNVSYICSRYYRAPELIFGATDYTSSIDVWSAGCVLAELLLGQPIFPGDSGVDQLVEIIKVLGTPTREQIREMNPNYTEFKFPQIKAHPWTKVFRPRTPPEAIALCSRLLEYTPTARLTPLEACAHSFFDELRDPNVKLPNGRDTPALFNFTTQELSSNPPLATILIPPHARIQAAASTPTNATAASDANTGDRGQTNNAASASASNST

B1: C-terminus of hRad9: hRad9 aa 269-391 (protein, UniProt Q99638 269-391, looked up, fragment)
chain: DSHSQDLGSPERHQPVPQLQAHSTPHPDDFANDDIDSYMIAMETTIGNEGSRVLPSISLSPGPQPPKSPGPHSEEEDEAEPSTVPGTPPPKKFRSLFFGSILAPVRSPQGPSPVLAEDSEGEG
- interaction with AR (AR [1]): strong interaction
- AR-mediated transactivation (full length AR) (AR [2]): suppressed
- interaction between AR N- and C-terminus (AR N/C interaction): potently inhibit

B2: CL-100: MAPK phosphatase-1 (protein, UniProt P28562 1-367, looked up)
Dual specificity protein …: MVMEVGTLDAGGLRALLGERAAQCLLLDCRSFFAFNAGHIAGSVNVRFSTIVRRRAKGAMGLEHIVPNAELRGRLLAGAYHAVVLLDERSAALDGAKRDGTLALAAGALCREARAAQVFFLKGGYEAFSASCPELCSKQSTPMGLSLPLSTSVPDSAESGCSSCSTPLYDQGGPVEILPFLYLGSAYHASRKDMLDALGITALINVSANCPNHFEGHYQYKSIPVEDNHKADISSWFNEAIDFIDSIKNAGGRVFVHCQAGISRSATICLAYLMRTNRVKLDEAFEFVKQRRSIISPNFSFMGQLLQFESQVLAPHCSAEAGSPAMAVLDRGTSTTTVFNFPVSIPVHSTNSALSYLQSPITTSPSC
- AR-activated GAL4-Elk1 activity [3]: diminished

- hGR transactivation [5]: failed to inhibit
- phosphorylation of GST-AR38-560 (N-terminus) (AR [8]): significantly phosphorylated
- phosphorylation of GST-AR-DBD-LBD or 6His-AR-LBD (AR [8]): slightly phosphorylated
- binding of 35S-methionine-labeled AR to GST-GSK3β (AR [10]): bind specifically
B3: GSK3β: glycogen synthase kinase 3β, serine/threonine protein kinase (SEQ ID NO:5), wild type (protein)
chain: MSGRPRTTSFAESCKPVQQPSAFGSMKVSRDKDGSKVTTVVATPGQGPDRPQEVSYTDTKVIGNGSFGVVYQAKLCDSGELVAIKKVLQDKRFKNRELQIMRKLDHCNIVRLRYFFYSSGEKKDEVYLNLVLDYVPETVYRVARHYSRAKQTLPVIYVKLYMYQLFRSLAYIHSFGICHRDIKPQNLLLDPDTAVLKLCDFGSAKQLVRGEPNVSYICSRYYRAPELIFGATDYTSSIDVWSAGCVLAELLLGQPIFPGDSGVDQLVEIIKVLGTPTREQIREMNPNYTEFKFPQIKAHPWTKDSSGTGHFTSGVRVFRPRTPPEAIALCSRLLEYTPTARLTPLEACAHSFFDELRDPNVKLPNGRDTPALFNFTTQELSSNPPLATILIPPHARIQAAASTPTNATAASDANTGDRGQTNNAASASASNST
- AR-mediated transcription of the luciferase reporter reduced by (AR [4]; ARE4-Luc, 10 nM DHT): about 40%
- DHT-mediated AR transactivation / AR transcriptional activity (AR [4]; MMTV-Luc): inhibits
- activity of AR (AR [6]): reduced
- expression of PSA mRNA ([7]; Northern blot, 10 nM DHT): reduced
- DHT-mediated induction of transcription from the PSA promoter ([7]; PSA-luc): repressed
- activity of GAL4-AR-LBD (AR AF-1 / AF-2): did not influence
- constitutive transcriptional activity of GAL4-ARN (AR AF-1 / AF-2): inhibited
- endogenous expression of AR (AR [9]): little change

B4: N-hRad9: PCNA-like domain of hRad9, aa 1-270 (protein)
chain: MKCLVTGGNVKVLGKAVHSLSRIGDELYLEPLEDGLSLRTVNSSRSAYACFLFAPLFFQQYQAATPGQDLLRCKILMKSFLSVFRSLAMLEKTVEKCCISLNGRSSRLVVQLHCKFGVRKTHNLSFQDCESLQAVFDPASCPHMLRAPARVLGEAVLPFSPALAEVTLGIGRGRRVILRSYHEEEADSTAKAMVTEMCLGEEDFQQLQAQEGVAITFCLKEFRGLLSFAESANLNLSIHFDAPGRPAIFTIKDSLLDGHFVLATLSDTDS
- interaction with AR (AR [1]): did not
- interaction between AR N- and C-terminus (AR N/C interaction): no effect
